{"source": "patent US20110293511A1", "about": "“SPECIFIC BINDING PROTEINS AND USES THEREOF” (priority 2009, published 2011)", "key": {"[1]": {"target": "wild-type EGFR (wtEGFR) (human) (UniProt P00533)", "test": "Scatchard, A431 cells"}, "[2]": {"target": "wild-type EGFR (wtEGFR) (human) (UniProt P00533)", "test": "Scatchard, 125I-labeled 528 on A431 cells"}, "[3]": {"target": "wild-type EGFR (wtEGFR) (human) (UniProt P00533)", "test": "immunohistochemistry on glioblastoma tissue; EGFR amplified, no de2-7 EGFR"}, "[4]": {"target": "de2-7 EGFR (human) (UniProt P00533)", "test": "immunohistochemistry on glioblastoma tissue; EGFR amplified, de2-7 EGFR expressed"}}, "data": [{"substance": "mAb528 (antibody)", "values": [{"measurement": "receptors per cell (receptors per cell)", "setting": "[1]", "result": "2e+06"}, {"measurement": "binding sites per cell (sites per cell)", "setting": "[2]", "result": "2e+06"}, {"measurement": "percent of immunoreactive cells (immunohistochemistry)", "setting": "[3]", "result": "> 75", "unit": "%"}, {"measurement": "percent of immunoreactive cells (immunohistochemistry)", "setting": "[4]", "result": "> 75", "unit": "%"}]}]}
